Biological target: ubiquitin agarose (UniProt P0CG48 1-76, linked to agarose beads)
Assay: pull-down

B1: GST-spartin 1-408 (domain or fragment)
chain: MEQEPQNGEPAEIKIIREAYKKAFLFVNKGLNTDELGQKEEAKNYYKQGIGHLLRGISISSKESEHTGPGWESARQMQQKMKETLQNVRTRLEILEKGLATSLQNDLQEVPKLYPEFPPKDMCEKLPEPQSFSSAPQHAEVNGNTSTPSAGAVAAPASLSLPSQSCPAEAPPAYTPQAAEGHYTVSYGTDSGEFSSVGEEFYRNHSQPPPLETLGLDADELILIPNGVQIFFVNPAGEVSAPSYPGYLRIVRFLDNSLDTVLNRPPGFLQVCDWLYPLVPDRSPVLKCTAGAYMFPDTMLQAAGCFVGVVLSSELPEDDRELFEDLLRQMSDLRLQANWNRAEEENEFQIPGRTRPSSDQLKEASGTDVKQLDQGNKDVRHKGKRGKRAKDTSSEEVNLSHIVPCEPV
binding result: binds

Reference: publication PMC3982999 (Molecular Biology of the Cell, 2014)
